For experiment [1], the target named is T1, WDR5 (WD (Trp-Asp) repeat domain 5) (UniProt P61964 1-334). The experiment can be described thus: fluorescence polarisation.
Experiment [2] concerns the target T1, WDR5 (WD (Trp-Asp) repeat domain 5). The experiment can be described thus: fluorescence polarisation. This is another data set of the same source. On the technique in general: Fluorescence polarisation rises when a labelled molecule tumbles more slowly, as on binding a larger partner.

The Ki is the equilibrium dissociation constant of an inhibitor or competing ligand from its target. Read a high Ki as weaker binding.

Where two headings read alike, the source gives them in different places. Square brackets hold non-standard residues; d marks the D form. ACPC = not defined here; Ac3c = NC1(C(=O)O)CC1

B1: VR-ACPC (peptide)
chain: Ac-Val-Arg-[ACPC]-NH2
modifications: reading uncertain
B1 registered a Ki in experiment [1] of 600 nM.

B2: ACPC-RV (peptide)
chain: Ac-[Ac3c]-Arg-Val-NH2
Molecule B2 came in with a Ki in experiment [2] of 60 nM.

The values are drawn from PMC5180416 (Journal of the American Chemical Society, 2012).
